First the molecules themselves.
T1: PEM peptide (human)
T1 peptide: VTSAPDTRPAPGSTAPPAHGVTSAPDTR

T2: mimetope peptide 7E11-9.5 (not fully specified)
T2 peptide: LYANPGMYSRLHSPA

B1: MP-1 (peptide)
peptide: GAPVWRGNPRWRGPGGFKWPGCGNGPMCNTFTPARGGSRNNGP
notes: eluted with excess PEM peptide; also called MPI; PEM abtide MP-1

Where no end group is shown, it is not given here.

One assay addresses T1, PEM peptide. Briefly: phage panning on PEM peptide, D38 library, stringent acid elution. The method, then: (§1) A peptide comprising this sequence was synthesized and used to isolate abtides from TSAR peptide libraries by methods analogous to those described above. In these experiments, the specific TSAR libraries used were R26, D38 and DC43. See FIGS. 10-12 for description of these libraries. Phage bound to PEM were eluted by either standard acid elution methods, stringent acid elution methods where phage were incubated with the PEM peptide for only 10 minutes prior to washing and elution, or were eluted using excess PEM peptide. Phage from each library were isolated that express peptides capable of binding to PEM.
Turning to STCIGAEGEWKSFHNFLQCRDATSTSSSTLDPTALRFG (stringent acid elution) [V27], the binding result is given as “binds”.
Turning to PLTSGSSSEYRNRDDCPVYKYATNCPRLNFSPSRYSPF (stringent acid elution) [V45], the binding result is reported as “binds”.
Same read-out and setting: as for GDAYGGIFSRPRQGLADSYIHASYTGKHFFRGPRPPTR (stringent acid elution) [V32], the entry is “binds”; as for YSATLWDQFGSRQVELWSNRHASSALPFASRASVLGSR (stringent acid elution) [V40], “binds”.

The target of another assay is T1, PEM peptide. Briefly: phage ELISA on PEM.
Turning to GSSVCGGQPSGRGFGGLPGPGCGNGPTSNTLTSARGGFPNKGL [E27], the binding result is reported as “no binding”.
Regarding AGRELRQDEGEGGAGADVARLREGPICSTFTPARGGSCPSGL [E43], the binding result was “no binding”.
In the case of GDPECRGKPRGRWTGSLACTGCGNGPNSKICTRARGVSRNKGP [E60], the binding result was “no binding”.
On the same count and under the same terms, as for GEPVWCRHSGGRVQGGLDWLGCGDGPLRYTVTPARGGPSKHGP [E64], the entry is “binds”; as for QARVSMAISCRSGPSDLMHQGCGYGPRCNPDTTDSGGSHTNTP [E49], “no binding”.
On the same count and under the same terms, as for VSRAWSGKPRLMGSHGLNCPGCGKGHSGIMFIPDPAGSANTPP [E67], the entry is “binds”; as for GAPLWQGDPADEVLGGSMIPGCGIGALSQTFTPTPGGSRKNVT [E37], “no binding”; as for CAPMWSGKPPWCVGGGVKFRGCGNRPDCNIITPRLVESRDKAL [E68], “binds”.
Turning to SSGVGNGKPRSWAPDALNGGCGNIQFANTITPDRGGSCNQTL [E24], the binding result is reported as “no binding”.
The same measure, in the same setting: as for GAPVSRCKPACGGFWGVNWPGCGNASMCKTFTNGHGVSSDNGH [E22], the entry is “binds”; as for GAHGYKNGSTCTGLGGWRCRGCGKGAMCNNPSPAGGAYHNQGP [E29], “binds”.
Still for that read-out and setting: next, GQPECRITSGCCGTDGNKWLGCGKVDMCNTLNPAVGCHGTNGS [E34]: “no binding”; GLSLVRGDSWGSGAGGWKRHGCGHGPMYNPQTPARGGSCTRNT [E66]: “binds”; ADPVCSRKPDGGGLRGLRWPGCGKGPILYNVTAARGGSRNNGP [E70]: “binds”.
The same measure, in the same setting: as for STPGCSGYSGSGDPRCLTCTACGNGHTRKTLTPAHGRSTHKEP [E72], the entry is “no binding”; as for RSAVSEGKPREIVPGGCMWPGCGNGRKSNTLTHGPEQFQEIEP [E15], “no binding”; as for GAPVVGDILWCSGARGAKWPGCGKGPTNKTFSHSRGGTQKSGL [E90], “binds”.
For GTRVPPGFALRGGRDGLSWAGCGKAPISKTYTSARGRSRKKGS [E3], the binding result is given as “no binding”.

A further assay has as its target T1, PEM peptide. Briefly: phage panning on PEM peptide, DC43 library, stringent acid elution. The method, then:
as §1
For WSIGTHTGPEGKFRIPCDRSGCGGTTLTHGGLNSSPTGQHERP (stringent acid elution) [V44], the binding result is recorded as “binds”.
Still for that read-out and setting: as for GSKRSCWGTTISNYFRPVPEGCGSASSINPNTNTGRLPSLHRQ (stringent acid elution) [V10], the entry is “binds”.
On the same count and under the same terms, as for NVMWSSSKAGIRDCSQVPPGGCGPVNRHRASPPLTPFRHGSIR (stringent acid elution) [V4], the entry is “binds”; as for SSASSGCLGRAEHLDLDSVWGCGSQADMSRRYSPWYGRPRTGV (stringent acid elution) [V7], “binds”; as for DPCEDGYWLSSVGRAGASIRGCGAIRRSSRTLTAEYSTRASNH (stringent acid elution) [V39], “binds”.

A further assay deals with T1, PEM peptide. Briefly: phage panning on PEM peptide, R26 library, eluted with excess PEM peptide. As to the method: as §1
For the molecule RAELVNWYEWFHVTAEAETPVINSHNMT (eluted with excess PEM peptide) [P6], the binding result is given as “binds”.
Still for that read-out and setting: as for ILGWPFLTGLGDSTVHPRGRKGTDPS (eluted with excess PEM peptide) [P24], the entry is “binds”; as for SIPSFSMWLNQLGSAALPSKGNSQDRSD (eluted with excess PEM peptide) [P49], “binds”.
For the molecule SRDDIFTGGPLVLFRGSKTSNHDVHSMR (eluted with excess PEM peptide) [P26], the binding result was “binds”.

The next assay has as its target T1, PEM peptide. Briefly: phage panning on PEM peptide, D38 library, acid eluted. As to the method:
as §1
On to DQIGSRPQTTSRSISGSWWENAKTLWQQDYAFSAPNAA (acid eluted) [MA-32], for which the binding result was “binds”.
Still for that read-out and setting: next, VQLDDTSPRASGQETSQSEYDARPLLSKFAIPRPWSR (acid eluted) [V21]: “binds”; LSDAWGNFTTSYRDSAGFPSHAMTTSQGGKRNHASRFP (acid eluted) [V23]: “binds”.
For the molecule IDSSKNRISGTGYLSFPHIRHANRRHMADDSNLAPGPS (acid eluted) [V1], the binding result was “binds”.

Another assay concerns the target T1, PEM peptide. Kind of assay: phage panning on PEM peptide, DC43 library, eluted with excess PEM peptide. As to the method:
as §1
As for VFRRTARSSRPIGATVFPWYGCGNSNDETLPHHDSPPSFFLGA (eluted with excess PEM peptide) [MP-22], the binding result is recorded as “binds”.
The same measure, in the same setting: next, B1: “binds”; GSASSCFPNFTARGVTVGFFGCGSPAHPAAPRVLNPATDFPAP (eluted with excess PEM peptide) [MP-2]: “binds”.

Another assay has as its target T2, mimetope peptide 7E11-9.5. Briefly: phage panning of TSAR-9 library on plate-bound 7E11-9.5 peptide. As to the method:
Next, the mimetope peptide was used to isolate abtides from a peptide library. Fifty to one hundred microliters of the solution of this peptide was used to coat the wells of a 96-well plate, the wells were blocked with 0.5% BSA in PBS, and the wells were used for screening. An aliquot of the TSAR-9 random phage library (containing approximately 3×10¹⁰ phage particles) was used as in the initial screening, and 4 rounds of screening were performed. After the first two rounds, the phage were amplified. Two more rounds of screening were then performed. By this procedure, phage from the TSAR-9 library that expressed peptides capable of binding to the 7E11-9.5 mimetope peptide were identified and isolated. The peptides containing the binding domains of these phage are abtides and were discovered to mimic the binding specificities of monoclonal antibody 7E11-C5. These abtides are termed “7E11-C5 abtides.”
With RCSPIWGISYPFGLLSSNPGVCHSSDAETNIRNDILTT [7E11-C5 abtide clone 13], the binding result is “binds”.
As to GHSNYCFVSTLGMPIVGFPSINARGLIHYGGSDPRLAA [7E11-C5 abtide clone 16], the binding result is on record as “binds”.

The next assay addresses T1, PEM peptide. Kind of assay: phage panning on PEM peptide, R26 library, acid eluted. The method, then:
as §1
For the molecule SSSIFDYAPFSWGSAGLSNSSINVFERS (acid eluted) [A54], the binding result is listed as “binds”.
Turning to SLGLPWIDVFGRSSAEPWPFGRTNLPRS (acid eluted) [A39], the binding result was “binds”.
Turning to SFMDYFFHTPEPKPAGYPNAYTDPKHPA (acid eluted) [A15], the binding result is on record as “binds”.
For the molecule SVHGAFLDSFFPWAADGPHGRGRLTSF (acid eluted) [A16], the binding result was “binds”.

For the origin of these results see patent publication US20040229289A1, “Antigen binding peptides (abtides) from peptide libraries” (Cytogen Corporation, priority 1994, published 2004).
